Here are results for four molecules from patent US20260109776A1 (Amgen, published 2026).

Read-outs that look alike come from different tables or passages of the source.

Test [1] addresses T1, soluble recombinant cynomolgus monkey mesothelin (cynomolgus monkey).
T1 chain: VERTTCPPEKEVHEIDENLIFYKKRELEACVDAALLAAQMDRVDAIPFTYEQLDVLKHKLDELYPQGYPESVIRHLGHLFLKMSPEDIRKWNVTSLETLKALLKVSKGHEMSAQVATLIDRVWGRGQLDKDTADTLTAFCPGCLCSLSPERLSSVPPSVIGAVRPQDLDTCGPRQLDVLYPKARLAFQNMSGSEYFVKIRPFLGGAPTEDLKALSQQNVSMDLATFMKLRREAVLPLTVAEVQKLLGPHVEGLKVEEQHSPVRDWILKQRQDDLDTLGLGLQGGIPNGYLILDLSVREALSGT
Description: Octet, soluble recombinant cyno MSLN. (BLI is a label-free optical method that tracks binding on a fibre tip over time.)

Test [2] concerns the target T2, human CD40 (human, UniProt P25942 21-277). Description: cell-based or functional assay.
Test [3] has as its target T3, huCD40(1-193) (human, UniProt P25942 21-193).
T3 construct: also called soluble human CD40
Description: Octet. Put shortly: (§1)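 Mesothelin×CD40 bispecific antibodies in IgG-scFv format were tested for binding to soluble human and cynomolgus monkey CD40 and to soluble human and cynomolgus monkey mesothelin using an Octet biolayer interferometry assay. Binding kinetics were analyzed to calculate the association rate (Kon), the dissociation rate (Kdis), and the equilibrium binding constant (KD).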

In the next test the target is T4, cynoMSLN(296-598) (cynomolgus monkey).
T4 chain: T1 chain
Description: Octet. The essentials:
as §1

Test [4] concerns the target T5, cynoCD40(1-193) (cynomolgus monkey, UniProt P25942 21-193 (human entry)).
T5 construct: also called soluble cynomolgus monkey CD40
T5 chain: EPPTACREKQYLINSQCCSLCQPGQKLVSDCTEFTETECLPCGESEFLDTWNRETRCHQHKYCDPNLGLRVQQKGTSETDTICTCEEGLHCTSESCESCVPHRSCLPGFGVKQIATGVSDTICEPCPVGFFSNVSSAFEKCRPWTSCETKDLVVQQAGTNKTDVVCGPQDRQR
Description: Octet. The essentials: as §1

Test [5] deals with T6, huMSLN(296-598) (human, UniProt Q13421 296-598).
T6 construct: also called soluble human mesothelin
Description: Octet. Put shortly: as §1
T6 sequence (Q13421 other isoform, or with tags, fused parts or gaps): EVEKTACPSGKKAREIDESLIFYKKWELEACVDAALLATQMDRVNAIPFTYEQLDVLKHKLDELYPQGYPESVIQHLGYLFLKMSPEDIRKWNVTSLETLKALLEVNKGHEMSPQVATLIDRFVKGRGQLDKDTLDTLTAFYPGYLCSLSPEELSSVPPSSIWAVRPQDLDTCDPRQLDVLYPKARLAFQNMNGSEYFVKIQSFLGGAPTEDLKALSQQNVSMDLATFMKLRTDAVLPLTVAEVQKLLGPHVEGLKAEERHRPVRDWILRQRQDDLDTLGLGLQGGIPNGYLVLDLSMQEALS

The target in test [6] is T2, human CD40. Description: cell-based or functional assay. The source holds these as a separate data set.
Test [7] has as its target T7, cynoCD40(1-193) (cynomolgus monkey, UniProt P25942 21-193 (human entry)).
T7 construct: Soluble form used in Octet; also called cynomolgus monkey CD40
T7 chain: T5 chain
Description: Octet, soluble antigen.

For test [8], the target named is huMSLN(296-598) (human, UniProt Q13421 296-598). Description: Octet, soluble antigen.
Target sequence in this assay (Q13421 other isoform, or with tags, fused parts or gaps): as above
Test [9] addresses T8, huCD40(1-193) (human, UniProt P25942 21-193).
T8 construct: Soluble form used in Octet; also called human CD40; soluble human CD40
Description: Octet, soluble antigen.

The target in test [10] is human CD40 on purified human B cells (human, UniProt P25942 21-277). Description: cell-based or functional assay.

B1: anti-mesothelin antibody 7G11 (antibody, V domains shown)
VH: EVQLVESGGGLIQPGGSLRLSCAVSGFTVSSKFMTWVRQAPGKGLEWVSVIYSGGKTYYADSVKGRFTISRDNSKNTLYLQMNSLRAEDTAVYYCARDSGGWGYFDYWGQGTLVTVSS
VL: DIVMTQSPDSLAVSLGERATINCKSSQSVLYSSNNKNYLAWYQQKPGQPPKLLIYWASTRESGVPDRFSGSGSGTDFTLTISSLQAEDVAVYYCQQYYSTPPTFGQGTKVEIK
For orientation: Kd means a measure of binding affinity in units of concentration. A word on the koff: it is the first-order rate constant of dissociation. The kon is the second-order rate constant of association. B1: in test [1], the Kd turned out to be 6.4 nM, the koff came to 0.00188 s⁻¹ and the kon was found to be 294000 M⁻¹ s⁻¹.

B2: 6052-2 (bispecific antibody)
heavy: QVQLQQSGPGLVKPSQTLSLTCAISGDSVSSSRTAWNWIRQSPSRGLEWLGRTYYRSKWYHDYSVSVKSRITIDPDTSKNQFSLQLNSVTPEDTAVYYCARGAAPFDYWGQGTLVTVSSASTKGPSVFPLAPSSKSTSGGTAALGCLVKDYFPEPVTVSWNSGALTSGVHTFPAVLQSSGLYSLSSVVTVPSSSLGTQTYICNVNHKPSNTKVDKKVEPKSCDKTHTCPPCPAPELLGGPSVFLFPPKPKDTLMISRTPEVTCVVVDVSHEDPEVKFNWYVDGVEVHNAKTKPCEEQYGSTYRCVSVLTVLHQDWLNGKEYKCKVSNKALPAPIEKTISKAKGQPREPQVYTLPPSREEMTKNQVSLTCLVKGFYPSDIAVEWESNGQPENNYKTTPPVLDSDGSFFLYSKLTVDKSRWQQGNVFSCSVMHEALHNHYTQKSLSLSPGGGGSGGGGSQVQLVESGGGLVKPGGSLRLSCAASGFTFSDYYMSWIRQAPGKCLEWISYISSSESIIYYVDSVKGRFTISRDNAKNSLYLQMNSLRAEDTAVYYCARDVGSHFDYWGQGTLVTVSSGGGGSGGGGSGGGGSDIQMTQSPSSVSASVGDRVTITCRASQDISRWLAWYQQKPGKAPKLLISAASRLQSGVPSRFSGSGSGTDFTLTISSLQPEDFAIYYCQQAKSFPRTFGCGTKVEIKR
light: EIVLTQSPGTLSLSPGERATLSCRASQSVSSNYLAWYQQKPGQAPRALIYAASNRAAGISDRFSGSGSGTDFTLTISRLEPEDFAVYFCQQYGSSPLTFGGGTKVEIKRTVAAPSVFIFPPSDEQLKSGTASVVCLLNNFYPREAKVQWKVDNALQSGNSQESVTEQDSKDSTYSLSSTLTLSKADYEKHKVYACEVTHQGLSSPVTKSFNRGEC
notes: IgG-scFv: IgG (CD40) 36F3, scFv (MSLN) 6F4; also called 6052-3
Consider B2, for which the “EC50 (nM), CD86 upregulation on human B cells with huMSLN-CHO cells” value with human CD40 [2] was determined as 0.00316 nM; in the test with human CD40 [6], 0.00445 nM. The Kd with huCD40(1-193) [3] is 2.5 nM; with cynoMSLN(296-598), 19 nM; with cynoCD40(1-193) [4] it was 3.3 nM; in the test with huMSLN(296-598) [5] it was 0.7 nM. Besides, the koff was found to be 0.000556 s⁻¹ with huCD40(1-193) [3], 0.00519 s⁻¹ with cynoMSLN(296-598), 0.00035 s⁻¹ in the test with cynoCD40(1-193) [4] and 0.000533 s⁻¹ in the test with huMSLN(296-598) [5]. Besides, the kon came to 218000 M⁻¹ s⁻¹ with huCD40(1-193) [3], 269000 M⁻¹ s⁻¹ with cynoMSLN(296-598), 105000 M⁻¹ s⁻¹ with cynoCD40(1-193) [4] and 713000 M⁻¹ s⁻¹ with huMSLN(296-598) [5].

B3: Anti-CD40xMSLN IgG-Fab molecule 5973-1 (bispecific antibody)
chain 1: QVQLVESGGGLVKPGGSLRLSCAASGFTFSDYYMSWIRQAPGKGLEWISYISSSESIIYYVDSVKGRFTISRDNAKNSLYLQMNSLRAEDTAVYYCARDVGSHFDYWGQGTLVTVSS
chain 2: DIQMTQSPSSVSASVGDRVTITCRASQDISRWLAWYQQKPGKAPKLLISAASRLQSGVPSRFSGSGSGTDFTLTISSLQPEDFAIYYCQQAKSFPRTFGQGTKVEIKR
chain 3: QVQLVESGGGLVKPGGSLRLSCAASEFTFSDYYMSWIRQAPGKGLEWVSYISRSGDTIYYADSVKGRFTISRDNAKNSLYLQMNGLRAEDTAVYYCARDLAAGATGGLDCWGQGTLVTVSS
chain 4: SYELTQPPSVSVSPGQTASITCSGERLGNKYICWYQQKPGQSPVLVIYQDFKRPSGIPERFSGSNSGITATLTISGTQAMDEADYYCQAWDSRTVVFGGGTKLTVLG
For the molecule B3, in the test with cynoCD40(1-193) [7], the Kd is 0.6 nM, the dissociation rate constant (koff) was 0.000404 s⁻¹ and the kon came out at 669000 M⁻¹ s⁻¹. In the test with huMSLN(296-598) [8], this molecule registered a Kd of 0.5 nM, a koff of 0.000223 s⁻¹ and a kon of 451000 M⁻¹ s⁻¹. In the test with huCD40(1-193) [9], this molecule showed a Kd of 0.6 nM, a koff of 0.000325 s⁻¹ and an association rate constant (kon) of 541000 M⁻¹ s⁻¹. Further, in [10], the “EC50 (nM), CD86 upregulation on human B cells in the presence of CHO cells expressing human mesothelin” value worked out at 0.006 nM.

B4: Anti-CD40xMSLN IgG-Fab molecule 5987-1 (bispecific antibody)
chain 1: QVQLVQSGAEVTKPGASVKVSCKASGYTFAGYYMHWVRQAPGQGLEWMGWINPHSGGTNYAQKFQDRVTMTRDTSINTAYMELSRLRSDDTAVYYCARERISMVRGVGHNWFAPWGQGTLVTVSS
chain 2: DIQMTQSPSSLSASVGDRVTITCRASQDISNNLAWFQQKPGKPPKSLMYAASSLHSGVPSTFSGSGSGTDFTFTISSLQPEDFATYYCQQYNSYPLTFGGGTKVEIRR
chain 3: B3 chain 1
chain 4: B3 chain 2
In the test with cynoCD40(1-193) [7], B4 yielded a Kd of 0.7 nM, a dissociation rate constant (koff) of 0.000526 s⁻¹ and a kon of 752000 M⁻¹ s⁻¹. In the test with huMSLN(296-598) [8], this molecule showed a Kd of 1 nM, a koff of 0.000439 s⁻¹ and a kon of 424000 M⁻¹ s⁻¹. In the test with huCD40(1-193) [9], this molecule had a Kd of 0.7 nM, a koff of 0.000423 s⁻¹ and a kon of 600000 M⁻¹ s⁻¹. Moreover, in test [10], the “EC50 (nM), CD86 upregulation on human B cells in the presence of CHO cells expressing human mesothelin” value came out at 0.003 nM.
